Data reported in patent US20240092918A1 (Novartis, published 2024).

B1: 121G12 humanized CysMab (Fc Wild Type) (antibody, human IgG1, V domains shown)
VH: EVQLVESGGGLVKPGGSLRLSCAASGFTFSTYAMSWVRQAPGKGLEWVATISDAGSYSYYPDNVKGRFTISRDNAKNSLYLQMNSLRAEDTAVYYCARRGSRYEEYYVMDYWGQGTTVTVSS
VL: EIVLTQSPATLSVSPGERVTLSCRASQSISNNLHWYQQKPGQAPRLLIKYASQSISGIPARFSGSGSGTDFTLTISSVEPEDFGVYFCQQSSSWLTFGQGTKLEIK
notes: Human IgG1 kappa with E152C/S375C (CysMab) and wild type Fc
B2: 674J13 (Humanized, CysMab DAPA) (antibody, human IgG1, kappa, V domains shown)
VH: DVQLQESGPGLVKPSQTLSLTCTVSGYSITSGYSWHWIRQHPGKGLEWMAHIHSSGSTNYNPSLKSRITISRDTSKNQFSLKLSSVTAADTAVYYCARGGVQAFAYWGQGTLVTVSS
VL: EIVLTQSPATLSASPGERVTMSCSASSSVIYMHWYQQKPGQAPRRWIYDTSKLASGVPARFSGSGSGTDYTLTISSMEPEDAAVYYCQQWSSNPLTFGQGTKLEIKR
notes: Human IgG1 kappa, E152C/S375C, D265A/P329A; In the pHrodo assay it carried maleimide-pHrodo (DAR 4); also called 674J13.CysMab.DAPA; 674J13.DAPA
B3: 121G12 (Humanized CysMab, DAPA) (antibody, human IgG1, kappa)
heavy: EVQLVESGGGLVKPGGSLRLSCAASGFTFSTYAMSWVRQAPGKGLEWVATISDAGSYSYYPDNVKGRFTISRDNAKNSLYLQMNSLRAEDTAVYYCARRGSRYEEYYVMDYWGQGTTVTVSSASTKGPSVFPLAPSSKSTSGGTAALGCLVKDYFPCPVTVSWNSGALTSGVHTFPAVLQSSGLYSLSSVVTVPSSSLGTQTYICNVNHKPSNTKVDKRVEPKSCDKTHTCPPCPAPELLGGPSVFLFPPKPKDTLMISRTPEVTCVVVAVSHEDPEVKFNWYVDGVEVHNAKTKPREEQYNSTYRVVSVLTVLHQDWLNGKEYKCKVSNKALAAPIEKTISKAKGQPREPQVYTLPPSREEMTKNQVSLTCLVKGFYPCDIAVEWESNGQPENNYKTTPPVLDSDGSFFLYSKLTVDKSRWQQGNVFSCSVMHEALHNHYTQKSLSLSPGK
light: EIVLTQSPATLSVSPGERVTLSCRASQSISNNLHWYQQKPGQAPRLLIKYASQSISGIPARFSGSGSGTDFTLTISSVEPEDFGVYFCQQSSSWLTFGQGTKLEIKRTVAAPSVFIFPPSDEQLKSGTASVVCLLNNFYPREAKVQWKVDNALQSGNSQESVTEQDSKDSTYSLSSTLTLSKADYEKHKVYACEVTHQGLSSPVTKSFNRGEC
notes: Human IgG1 kappa, E152C/S375C, D265A/P329A; In the pHrodo assay it carried maleimide-pHrodo (DAR 4); also called 121G12.CysMab.DAPA; 121G12.DAPA

Legend:
[1] = biological target: T1, Mouse CCR7 (mouse, UniProt P47774 25-378); test: FACS, NIH3T3 cell series and CD4+ T cells
T1 construct: On NIH3T3 cells or CD4+ T cells of CD-1 mice; also called NIH3T3.mouse CCR7
T1 sequence: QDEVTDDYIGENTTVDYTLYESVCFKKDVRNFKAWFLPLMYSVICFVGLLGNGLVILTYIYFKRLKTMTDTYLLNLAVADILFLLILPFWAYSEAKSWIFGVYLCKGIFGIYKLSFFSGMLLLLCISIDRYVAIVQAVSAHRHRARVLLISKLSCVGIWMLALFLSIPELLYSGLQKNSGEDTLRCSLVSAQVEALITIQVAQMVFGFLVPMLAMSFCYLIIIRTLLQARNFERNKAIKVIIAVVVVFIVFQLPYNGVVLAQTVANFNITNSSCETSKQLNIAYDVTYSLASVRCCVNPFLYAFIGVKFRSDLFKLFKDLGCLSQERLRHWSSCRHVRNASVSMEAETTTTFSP
Experimental: (§1) For this purpose, CCR7 positive cells were harvested (adherent cells were detached with Accutase), washed twice with FACS buffer (PBS/3% FCS/0.02% sodium azide) and diluted to approximately 2×10⁶ cells/ml in FACS buffer. All subsequent steps were done on ice to prevent internalization of the receptor. 100 μl cell suspension/well were transferred into 96-well U-bottom plates (Falcon). 2×10⁵ cells/well were incubated with a serial dilution of antibody concentrations of the anti-CCR7 antibody-of-interest ranging across several logs, starting at a high of 100 nM for 60 minutes at 4° C., gently shaking. Following incubation, cells were spun down (1200 rpm, 2 min, 4° C.) and washed three times with FACS buffer. A fluorophore-conjugated anti-hFc gamma-APC (Jackson ImmunoResearch) detection antibody was added at 1:400 and samples were incubated for 1 h on ice in the dark, gently shaken. After a final wash, cells were resuspended in 100 μl of FACS buffer containing 0.2 μg/ml DAPI followed by readout on the flow cytometry machine (BD LSRFortessa Cell Analyzer; Cat #647177). Mean fluorescence intensity (MFI) of live, single cells was calculated in Flowjo 10.0.8 and exported into Graphpad Prism6 for EC50 determination.

[2] = biological target: T2, Rat CCR7 (rat, UniProt P47774 25-378 (mouse entry)); test: FACS, NIH3T3 cell series and CD4+ T cells
T2 construct: On NIH3T3 cells or CD4+ T cells of Wistar rats; also called NIH3T3.rat CCR7
T2 chain: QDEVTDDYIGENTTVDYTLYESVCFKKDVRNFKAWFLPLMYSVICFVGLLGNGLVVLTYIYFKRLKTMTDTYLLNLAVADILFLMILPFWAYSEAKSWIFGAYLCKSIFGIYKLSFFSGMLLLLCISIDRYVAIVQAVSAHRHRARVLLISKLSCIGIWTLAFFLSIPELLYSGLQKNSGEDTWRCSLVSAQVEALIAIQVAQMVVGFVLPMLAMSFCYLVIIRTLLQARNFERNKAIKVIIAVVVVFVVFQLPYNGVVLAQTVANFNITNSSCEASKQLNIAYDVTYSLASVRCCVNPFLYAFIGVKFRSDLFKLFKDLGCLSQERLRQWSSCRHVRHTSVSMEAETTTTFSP
Experimental: as §1

[3] = biological target: T3, Human CCR7 (human, UniProt P32248 25-378); test: FACS competition on DEL cells (CCR7+), antibody titrated up to 100 nM applied together with the competitor CCL19 kept at 1 uM (panel 'ligand 1uM'), detection anti-hFc.PE, MFI [panel ligand 1uM]
T3 construct: also called hCCR7; NIH3T3.hCCR7
T3 sequence: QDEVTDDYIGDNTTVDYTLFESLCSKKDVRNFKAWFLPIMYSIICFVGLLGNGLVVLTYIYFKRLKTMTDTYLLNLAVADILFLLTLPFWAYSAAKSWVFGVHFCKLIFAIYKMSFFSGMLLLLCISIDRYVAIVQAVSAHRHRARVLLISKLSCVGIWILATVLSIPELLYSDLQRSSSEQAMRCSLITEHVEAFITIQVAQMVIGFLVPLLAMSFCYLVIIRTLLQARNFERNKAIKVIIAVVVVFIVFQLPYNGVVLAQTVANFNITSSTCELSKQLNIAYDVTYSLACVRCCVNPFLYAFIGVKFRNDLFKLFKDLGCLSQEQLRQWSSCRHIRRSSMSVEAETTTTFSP

[4] = biological target: T3, Human CCR7; test: cell-based or functional assay
[5] = biological target: T4, recombinant CCR7 (Origene #TP306614) (human, UniProt P32248 25-378, limits assumed); test: ELISA, plate coated with 3.5 ug/ml recombinant CCR7 (Origene #TP306614), antibody in serial dilution, detection anti-hFc gamma-HRP, absorbance at 650 nm
T4 construct: Bought protein coated on ELISA plates; also called recombinant hCCR7
T4 sequence (looked up): T3 sequence
Experimental: Binding and affinity was also assessed in an ELISA-based assay using recombinant CCR7 (Origene #TP306614). Maxisorp™ 384-well plates (Thermo Nunc) were coated with 3.5 μg/ml of recombinant CCR7 diluted in PBS. After blocking with 3% BSA (bovine serum albumin) in PBS for 1 hr at room temperature, washing plates 3× with PBS-T (0.01% Tween 20 in PBS), primary antibodies were added in a serial dilution and incubated for 1 hr at room temperature.

Binder | binding result [1] | binding result [2] | EC50 (read off the curve) [3] [nM] | pHrodo (6 h MFI), uptake of pHrodo-labelled antibody at 5 ug/ml, CD4+ T cells (2000 receptors) [4] [MFI] | pHrodo (6 h MFI), uptake of pHrodo-labelled antibody at 5 ug/ml, CMLT1 cells (19583 receptors) [4] [MFI] | pHrodo (6 h MFI), uptake of pHrodo-labelled antibody at 5 ug/ml, DEL cells (110685 receptors) [4] [MFI] | pHrodo (6 h MFI), uptake of pHrodo-labelled antibody at 5 ug/ml, JVM3 cells (8717 receptors) [4] [MFI] | pHrodo (6 h MFI), uptake of pHrodo-labelled antibody at 5 ug/ml, Jeko-1 cells (28852 receptors) [4] [MFI] | pHrodo (6 h MFI), uptake of pHrodo-labelled antibody at 5 ug/ml, KE97 cells (152093 receptors) [4] [MFI] | pHrodo (6 h MFI), uptake of pHrodo-labelled antibody at 5 ug/ml, L540 cells (167549 receptors) [4] [MFI] | pHrodo (6 h MFI), uptake of pHrodo-labelled antibody at 5 ug/ml, L1236 cells (61602 receptors) [4] [MFI] | pHrodo (6 h MFI), uptake of pHrodo-labelled antibody at 5 ug/ml, MJ cells (111121 receptors) [4] [MFI] | pHrodo (6 h MFI), uptake of pHrodo-labelled antibody at 5 ug/ml, MOTN1 cells (84200 receptors) [4] [MFI] | pHrodo (6 h MFI), uptake of pHrodo-labelled antibody at 5 ug/ml, Mec2 cells (50840 receptors) [4] [MFI] | EC50 (read off the curve) [5] [nM]
B1 | no binding | no binding | – | – | – | – | – | – | – | – | – | – | – | – | –
B2 | – | – | 2 to 3 | 402 | 561 | 3780 | 146 | 1390 | 4420 | 11800 | 5820 | 3260 | 2540 | 3000 | –
B3 | – | – | – | 278 | 301 | 1910 | 148 | 450 | 1570 | 6840 | 1240 | 1650 | 1030 | 1340 | ~0.7
